According to article doi:10.1101/2022.03.30.486221 (bioRxiv, 2022):

Target: the molecule itself
Assay: SEC

B1: recombinant His6-tagged StTGA2.1 (natural protein, UniProt A0A9F1U434 1-270, looked up)
chain: MDAMGDREGPRLVSSTALWRGDRRPAQVVQVSQLEQDFQRAPQQRESGSLPFDTEYSRWLEEHTKHINELRTAVNSHASDPELRSMVDSVIAHYDEVYRMKANAAKGNVEHLLSGMWKTPAERCSMWIGDFRPSLLLKLLVNQVEPLTEQQLIGIVNLQQSSQQAEDALSQDMEAWQQSLEVTLAYGSLATEGSSGDAAYNISQMAMAMGILGTLEGFLRQADNLRQQTLQQMHRMLTTRQSARALLAISEYFSRLRALSSLWLARPREQ
Which “stoichiometry N” value does the source give for B1 here?
The value was 2.
